B1: (TG)4 (ssDNA)
DNA: TGTGTGTG
B2: (AC)4 (ssDNA)
DNA: ACACACAC

Experiments:
His6-SUMO-TDP-43 [1] = biological target: T1, His6-SUMO-TDP-43 (UniProt Q13148 1-414); assay: fluorescence anisotropy
His6-SUMO-TDP-43 [2] = biological target: T1, His6-SUMO-TDP-43; assay: fluorescence anisotropy; remark: listed apart in the source

T1 sequence (Q13148 whole entry): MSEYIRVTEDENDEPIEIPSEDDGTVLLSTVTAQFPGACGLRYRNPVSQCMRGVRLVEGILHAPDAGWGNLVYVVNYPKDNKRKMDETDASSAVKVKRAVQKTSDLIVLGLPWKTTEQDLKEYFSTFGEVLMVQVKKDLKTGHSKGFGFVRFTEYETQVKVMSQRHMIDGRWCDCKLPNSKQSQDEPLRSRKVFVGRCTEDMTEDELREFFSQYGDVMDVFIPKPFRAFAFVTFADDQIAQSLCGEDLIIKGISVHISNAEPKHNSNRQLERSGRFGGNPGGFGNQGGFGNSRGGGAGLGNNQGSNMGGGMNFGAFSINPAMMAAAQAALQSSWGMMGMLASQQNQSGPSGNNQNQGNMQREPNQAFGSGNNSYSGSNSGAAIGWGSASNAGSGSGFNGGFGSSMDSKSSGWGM

Binder | Kd (His6-SUMO-TDP-43 [1]) | binding result (His6-SUMO-TDP-43 [2])
B1 | ~1800 nM | –
B2 | – | no binding
